According to patent US20140105889A1 (published 2014):

Experiments:
mouse FcγRIV = molecular target: T1, mouse FcγRIV (mouse); test: SPR (Biacore), antibody captured on Protein L, mouse FcγR as analyte, pH 7.4, 25 C
T1 construct: Bought soluble receptor; also called mFcgRIV; mFcgR IV
Experimental: Binding activity between the antibodies and mouse FcγRI, FcγRII, FcγRIII and FcγRIV (R&D Systems, Sin θ Biological) (hereinafter referred to as mouse FcγRs) was evaluated using the Biacore T100 or T200 (GE Healthcare). The antibodies being tested were captured by Protein L (ACTIGEN) that was immobilized in suitable amounts on the CM4 Sensor Chip (GE Healthcare) by amine coupling. Next, the diluted mouse FcγRs and a running buffer used as a blank were injected to allow interaction with the antibody captured on the sensor chip. A buffer consisting of 20 mmol/L ACES, 150 mmol/L NaCl and 0.05% (w/v) Tween 20 (pH 7.4) was used for the running buffer, and this buffer was also used to dilute the mouse FcγRs. 10 mmol/L glycine-HCl (pH 1.5) was used to regenerate the sensor chip. All measurements were carried out at 25° C.

mouse FcRn = molecular target: T2, mouse FcRn (mouse, UniProt Q61559 22-297, limits assumed); test: SPR (Biacore), mouse FcRn, pH 7.0
T2 construct: Soluble analyte in Biacore; also called mFcRn
T2 sequence (looked up) 1: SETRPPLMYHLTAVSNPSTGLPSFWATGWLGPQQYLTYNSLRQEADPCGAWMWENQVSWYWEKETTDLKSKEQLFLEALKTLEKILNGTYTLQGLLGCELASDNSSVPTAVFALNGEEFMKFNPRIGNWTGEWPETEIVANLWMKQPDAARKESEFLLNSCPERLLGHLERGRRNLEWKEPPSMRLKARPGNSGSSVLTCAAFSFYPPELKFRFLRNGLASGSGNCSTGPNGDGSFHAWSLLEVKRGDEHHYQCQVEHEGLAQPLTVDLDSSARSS
T2 sequence (looked up) 2: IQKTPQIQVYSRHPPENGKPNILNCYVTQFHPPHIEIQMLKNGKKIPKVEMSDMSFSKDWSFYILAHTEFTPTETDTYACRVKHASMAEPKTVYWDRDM
Experimental: The binding between antibody and mouse FcRn was kinetically analyzed using Biacore T100 (GE Healthcare). An appropriate amount of protein L (ACTIGEN) was immobilized onto Sensor chip CM4 (GE Healthcare) by the amino coupling method, and the chip was allowed to capture an antibody of interest. Then, diluted FcRn solutions and running buffer (as a reference solution) were injected to allow mouse FcRn to interact with the antibody captured on the sensor chip. The running buffer used contains 50 mmol/l sodium phosphate, 150 mmol/l NaCl, and 0.05% (w/v) Tween20 (pH 7.4). FcRn was diluted using each buffer. The sensorchip was regenerated using 10 mmol/l glycine-HCl (pH 1.5). Assays were carried out exclusively at 25 degrees C. The association rate constant ka (1/Ms) and dissociation rate constant kd (1/s), both of which are kinetic parameters, were calculated based on the sensorgrams obtained in the assays, and the KD (M) of each antibody for mouse FcRn was determined from these values. Each parameter was calculated using Biacore T100 Evaluation Software (GE Healthcare).

T1 sequence (A0A0B4J1G0 21-203): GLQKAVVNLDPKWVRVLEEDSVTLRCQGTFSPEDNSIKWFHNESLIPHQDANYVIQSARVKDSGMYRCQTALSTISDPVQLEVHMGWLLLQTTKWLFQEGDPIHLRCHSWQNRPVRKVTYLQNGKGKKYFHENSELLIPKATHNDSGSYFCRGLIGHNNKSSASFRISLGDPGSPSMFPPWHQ

BINDING AMOUNT (RU) (mouse FcγRIV): -3.5 RU | binding result (mouse FcRn): no binding
B1: antibody with mPM1H-mIgG1 heavy chain and L(WT)-CK light chain (antibody)
heavy: DVQLQESGPVLVKPSQSLSLTCTVTGYSITSDHAWSWIRQFPGNKLEWMGYISYSGITTYNPSLKSRISITRDTSKNQFFLQLNSVTTGDTSTYYCARSLARTTAMDYWGQGTSVTVSSAKTTPPSVYPLAPGSAAQTNSMVTLGCLVKGYFPEPVTVTWNSGSLSSGVHTFPAVLQSDLYTLSSSVTVPSSTWPSETVTCNVAHPASSTKVDKKIVPRDCGCKPCICTVPEVSSVFIFPPKPKDVLTITLTPKVTCVVVDISKDDPEVQFSWFVDDVEVHTAQTQPREEQFNSTFRSVSELPIMHQDWLNGKEFKCRVNSAAFPAPIEKTISKTKGRPKAPQVYTIPPPKEQMAKDKVSLTCMITDFFPEDITVEWQWNGQPAENYKNTQPIMDTDGSYFVYSKLNVQKSNWEAGNTFTCSVLHEGLHNHHTEKSLSHSPGK
light: not shown
notes: Natural mouse IgG1 constant region; In the Biacore assays the heavy chain was paired with L(WT)-CK; also called mPM1-mIgG1; copies: 2 + 2
